Assay results reported in paper PMC6448480, “A Two-Way Proteome Microarray Strategy to Identify Novel Mycobacterium tuberculosis-Human Interactors” (Frontiers in Cellular and Infection Microbiology, 2019).

Molecular target: T1, myc-tagged SMAD2 (human, UniProt Q15796 1-467, labeled with Cy3)
T1 construct: SMAD2, human; also called SMAD2-myc; source: cloned into pCMV-C-myc vector, purified as previously reported (Li et al., 2013)
Assay: peptide or protein array
Conditions: both partners purified

T1 sequence (Q15796 whole entry): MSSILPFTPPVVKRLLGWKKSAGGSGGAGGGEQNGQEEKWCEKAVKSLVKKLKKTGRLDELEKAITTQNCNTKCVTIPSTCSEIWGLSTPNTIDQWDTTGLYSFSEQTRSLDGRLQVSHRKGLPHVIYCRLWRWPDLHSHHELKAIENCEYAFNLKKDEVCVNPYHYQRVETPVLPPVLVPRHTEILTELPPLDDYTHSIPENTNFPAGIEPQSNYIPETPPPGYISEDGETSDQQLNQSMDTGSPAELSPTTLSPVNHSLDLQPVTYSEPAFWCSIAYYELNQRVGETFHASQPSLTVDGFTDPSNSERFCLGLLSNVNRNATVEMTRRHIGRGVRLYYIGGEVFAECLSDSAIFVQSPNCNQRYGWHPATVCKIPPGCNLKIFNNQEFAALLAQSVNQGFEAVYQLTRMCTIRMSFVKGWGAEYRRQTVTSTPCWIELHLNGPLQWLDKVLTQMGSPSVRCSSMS

Row | Binder | binding result
1 | Rv3241c (Ribosome hibernation promotion factor, Hpf) on the Mtb proteome microarray (natural protein) MSRLAVDSGQVLAEPKSNAEIVFKGRNVEIPDHFRIYVSQKLARLERFDRTIYLFDVELDHERNRRQRKSCQRVEITARGRGPVVRGEACADSFYAALESAVVKLESRLRRGKDRRKVHYGDKTPVSLAEATAVVPAPENGFNTRPAEAHDHDGAVVEREPGRIVRTKEHPAKPMSVDDALYQMELVGHDFFLFYDKDTERPSVVYRRHAYDYGLIRLA | binds
2 | Rv0577 (Putative glyoxylase Cfp32) on the Mtb proteome microarray (natural protein) MPKRSEYRQGTPNWVDLQTTDQSAAKKFYTSLFGWGYDDNPVPGGGGVYSMATLNGEAVAAIAPMPPGAPEGMPPIWNTYIAVDDVDAVVDKVVPGGGQVMMPAFDIGDAGRMSFITDPTGAAVGLWQANRHIGATLVNETGTLIWNELLTDKPDLALAFYEAVVGLTHSSMEIAAGQNYRVLKAGDAEVGGCMEPPMPGVPNHWHVYFAVDDADATAAKAAAAGGQVIAEPADIPSVGRFAVLSDPQGAIFSVLKPAPQQ | binds
